Our source for the translation of capped luciferase mRNA with poly(A) in PABPC1-depleted rabbit reticulocyte lysate after adding 10 nM purified protein; fold enhancement over depleted lysate values is publication PMC5780489.

Assay [1] concerns the target PABPC1ΔLt2 (residues 1-420, 471-636) (human) (UniProt P11940).
Assay [2] deals with poly(A)-binding protein C1 (PABPC1), full length human (human) (UniProt P11940).

Sequence of poly(A)-binding protein C1 (PABPC1), full length human (P11940 whole entry): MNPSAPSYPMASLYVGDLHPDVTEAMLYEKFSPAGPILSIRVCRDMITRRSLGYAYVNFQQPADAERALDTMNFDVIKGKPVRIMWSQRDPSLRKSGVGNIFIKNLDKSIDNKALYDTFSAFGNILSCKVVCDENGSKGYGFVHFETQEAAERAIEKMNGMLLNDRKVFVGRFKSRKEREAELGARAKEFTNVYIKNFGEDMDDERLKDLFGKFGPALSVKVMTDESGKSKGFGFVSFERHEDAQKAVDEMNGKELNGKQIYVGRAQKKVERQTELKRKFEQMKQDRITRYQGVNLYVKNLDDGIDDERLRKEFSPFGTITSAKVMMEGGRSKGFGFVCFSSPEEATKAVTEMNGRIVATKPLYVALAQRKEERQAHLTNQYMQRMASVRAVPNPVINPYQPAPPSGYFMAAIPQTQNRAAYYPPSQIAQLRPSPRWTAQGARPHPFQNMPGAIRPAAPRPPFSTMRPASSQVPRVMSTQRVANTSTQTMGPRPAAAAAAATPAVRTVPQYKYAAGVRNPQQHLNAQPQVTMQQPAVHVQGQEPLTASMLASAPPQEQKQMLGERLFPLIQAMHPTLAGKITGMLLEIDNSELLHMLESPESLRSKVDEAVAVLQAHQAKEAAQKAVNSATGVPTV

“PABPC1ΔLt2 (residues 1-420, 471-636) (from UniProt P11940 1-636) (natural protein)”: in assay [1], the translation of capped luciferase mRNA with poly(A) in PABPC1-depleted rabbit reticulocyte lysate after adding 10 nM purified protein; fold enhancement over depleted lysate was 1.7 fold. Turning to “poly(A)-binding protein C1 (PABPC1), full length human (from UniProt P11940 1-636) (natural protein)”, the translation of capped luciferase mRNA with poly(A) in PABPC1-depleted rabbit reticulocyte lysate after adding 10 nM purified protein; fold enhancement over depleted lysate in assay [2] stood at 2.5 fold.
